Laboratory results as given in patent publication US20150210998.

B1: E6AP ligase Hect domain (GST removed by thrombin) (protein)
chain: INEPLNEVLEMDKDYTFFKVETENKFSFMTCPFILNAVTKNLGLYYDNRIRMYSERRITVLYSLVQGQQLNPYLRLKVRRDHIIDDALVRLEMIAMENPADLKKQLYVEFEGEQGVDEGGVSKEFFQLVVEEIFNPDIGMFTYDESTKLFWFNPSSFETEGQFTLIGIVLGLAIYNNCILDVHFPMVVYRKLMGKKGTFRDLGDSHPVLYQSLKDLLEYEGNVEDDMMITFQISQTDLFGNPMMYDLKENGDKIPITNENRKEFVNLYSDYILNKSVEKQFKAFRRGFHMVTNESPLKYLFRPEEIELLICGSRNLDFQALEETTEYDGGYTRDSVLIREFWEIVHSFTDEQKRLFLQFTTGTDRAPVGGLGKLKMIIAKNGPDTERLPTSHTCFNVLLLPEY
B2: GST-E6AP ligase Hect domain (protein)
chain: INEPLNEVLEMDKDYTFFKVETENKFSFMTCPFILNAVTKNLGLYYDNRIRMYSERRITVLYSLVQGQQLNPYLRLKVRRDHIIDDALVRLEMIAMENPADLKKQLYVEFEGEQGVDEGGVSKEFFQLVVEEIFNPDIGMFTYDESTKLFWFNPSSFETEGQFTLIGIVLGLAIYNNCILDVHFPMVVYRKLMGKKGTFRDLGDSHPVLYQSLKDLLEYEGNVEDDMMITFQISQTDLFGNPMMYDLKENGDKIPITNENRKEFVNLYSDYILNKSVEKQFKAFRRGFHMVTNESPLKYLFRPEEIELLICGSRNLDFQALEETTEYDGGYTRDSVLIREFWEIVHSFTDEQKRLFLQFTTGTDRAPVGGLGKLKMIIAKNGPDTERLPTSHTCFNVLLLPEY
B3: GST-E6APK688A (protein)
chain: MATACKRSGEPQSDDIEASRMKRAAAKHLIERYYHQLTEGCGNEACTNEFCASCPTFLRMDNNAAAIKALELYKINAKLCDPHPSKKGASSAYLENSKGAPNNSCSEIKMNKKGARIDFKDVTYLTEEKVYEILELCREREDYSPLIRVIGRVFSSAEALVQSFRKVKQHTKEELKSLQAKDEDKDEDEKEKAACSAAAMEEDSEASSSRIGDSSQGDNNLQKLGPDDVSVDIDAIRRVYTRLLSNEKIETAFLNALVYLSPNVECDLTYHNVYSRDPNYLNLFIIVMENRNLHSPEYLEMALPLFCKAMSKLPLAAQGKLIRLWSKYNADQIRRMMETFQQLITYKVISNEFNSRNLVNDDDAIVAASKCLKMVYYANVVGGEVDTNHNEEDDEEPIPESSELTLQELLGEERRNKKGPRVDPLETELGVKTLDCRKPLIPFEEFINEPLNEVLEMDKDYTFFKVETENKFSFMTCPFILNAVTKNLGLYYDNRIRMYSERRITVLYSLVQGQQLNPYLRLKVRRDHIIDDALVRLEMIAMENPADLKKQLYVEFEGEQGVDEGGVSKEFFQLVVEEIFNPDIGMFTYDESTKLFWFNPSSFETEGQFTLIGIVLGLAIYNNCILDVHFPMVVYRKLMGKKGTFRDLGDSHPVLYQSLKDLLEYEGNVEDDMMITFQISQTDLFGNPMMYDLKENGDKIPITNENRAEFVNLYSDYILNKSVEKQFKAFRRGFHMVTNESPLKYLFRPEEIELLICGSRNLDFQALEETTEYDGGYTRDSVLIREFWEIVHSFTDEQKRLFLQFTTGTDRAPVGGLGKLKMIIAKNGPDTERLPTSHTCFNVLLLPEYSSKEKLKERLLKAITYAKGFGML
B4: GST-E6APF727D (protein)
chain: MATACKRSGEPQSDDIEASRMKRAAAKHLIERYYHQLTEGCGNEACTNEFCASCPTFLRMDNNAAAIKALELYKINAKLCDPHPSKKGASSAYLENSKGAPNNSCSEIKMNKKGARIDFKDVTYLTEEKVYEILELCREREDYSPLIRVIGRVFSSAEALVQSFRKVKQHTKEELKSLQAKDEDKDEDEKEKAACSAAAMEEDSEASSSRIGDSSQGDNNLQKLGPDDVSVDIDAIRRVYTRLLSNEKIETAFLNALVYLSPNVECDLTYHNVYSRDPNYLNLFIIVMENRNLHSPEYLEMALPLFCKAMSKLPLAAQGKLIRLWSKYNADQIRRMMETFQQLITYKVISNEFNSRNLVNDDDAIVAASKCLKMVYYANVVGGEVDTNHNEEDDEEPIPESSELTLQELLGEERRNKKGPRVDPLETELGVKTLDCRKPLIPFEEFINEPLNEVLEMDKDYTFFKVETENKFSFMTCPFILNAVTKNLGLYYDNRIRMYSERRITVLYSLVQGQQLNPYLRLKVRRDHIIDDALVRLEMIAMENPADLKKQLYVEFEGEQGVDEGGVSKEFFQLVVEEIFNPDIGMFTYDESTKLFWFNPSSFETEGQFTLIGIVLGLAIYNNCILDVHFPMVVYRKLMGKKGTFRDLGDSHPVLYQSLKDLLEYEGNVEDDMMITFQISQTDLFGNPMMYDLKENGDKIPITNENRKEFVNLYSDYILNKSVEKQDKAFRRGFHMVTNESPLKYLFRPEEIELLICGSRNLDFQALEETTEYDGGYTRDSVLIREFWEIVHSFTDEQKRLFLQFTTGTDRAPVGGLGKLKMIIAKNGPDTERLPTSHTCFNVLLLPEYSSKEKLKERLLKAITYAKGFGML
B5: GST-E6APD543A (protein)
chain: MATACKRSGEPQSDDIEASRMKRAAAKHLIERYYHQLTEGCGNEACTNEFCASCPTFLRMDNNAAAIKALELYKINAKLCDPHPSKKGASSAYLENSKGAPNNSCSEIKMNKKGARIDFKDVTYLTEEKVYEILELCREREDYSPLIRVIGRVFSSAEALVQSFRKVKQHTKEELKSLQAKDEDKDEDEKEKAACSAAAMEEDSEASSSRIGDSSQGDNNLQKLGPDDVSVDIDAIRRVYTRLLSNEKIETAFLNALVYLSPNVECDLTYHNVYSRDPNYLNLFIIVMENRNLHSPEYLEMALPLFCKAMSKLPLAAQGKLIRLWSKYNADQIRRMMETFQQLITYKVISNEFNSRNLVNDDDAIVAASKCLKMVYYANVVGGEVDTNHNEEDDEEPIPESSELTLQELLGEERRNKKGPRVDPLETELGVKTLDCRKPLIPFEEFINEPLNEVLEMDKDYTFFKVETENKFSFMTCPFILNAVTKNLGLYYDNRIRMYSERRITVLYSLVQGQQLNPYLRLKVRRDHIIDDALVRLEMIAMENPADLKKQLYVEFEGEQGVAEGGVSKEFFQLVVEEIFNPDIGMFTYDESTKLFWFNPSSFETEGQFTLIGIVLGLAIYNNCILDVHFPMVVYRKLMGKKGTFRDLGDSHPVLYQSLKDLLEYEGNVEDDMMITFQISQTDLFGNPMMYDLKENGDKIPITNENRKEFVNLYSDYILNKSVEKQFKAFRRGFHMVTNESPLKYLFRPEEIELLICGSRNLDFQALEETTEYDGGYTRDSVLIREFWEIVHSFTDEQKRLFLQFTTGTDRAPVGGLGKLKMIIAKNGPDTERLPTSHTCFNVLLLPEYSSKEKLKERLLKAITYAKGFGML
B6: GST-E6APY533A (protein)
chain: MATACKRSGEPQSDDIEASRMKRAAAKHLIERYYHQLTEGCGNEACTNEFCASCPTFLRMDNNAAAIKALELYKINAKLCDPHPSKKGASSAYLENSKGAPNNSCSEIKMNKKGARIDFKDVTYLTEEKVYEILELCREREDYSPLIRVIGRVFSSAEALVQSFRKVKQHTKEELKSLQAKDEDKDEDEKEKAACSAAAMEEDSEASSSRIGDSSQGDNNLQKLGPDDVSVDIDAIRRVYTRLLSNEKIETAFLNALVYLSPNVECDLTYHNVYSRDPNYLNLFIIVMENRNLHSPEYLEMALPLFCKAMSKLPLAAQGKLIRLWSKYNADQIRRMMETFQQLITYKVISNEFNSRNLVNDDDAIVAASKCLKMVYYANVVGGEVDTNHNEEDDEEPIPESSELTLQELLGEERRNKKGPRVDPLETELGVKTLDCRKPLIPFEEFINEPLNEVLEMDKDYTFFKVETENKFSFMTCPFILNAVTKNLGLYYDNRIRMYSERRITVLYSLVQGQQLNPYLRLKVRRDHIIDDALVRLEMIAMENPADLKKQLAVEFEGEQGVDEGGVSKEFFQLVVEEIFNPDIGMFTYDESTKLFWFNPSSFETEGQFTLIGIVLGLAIYNNCILDVHFPMVVYRKLMGKKGTFRDLGDSHPVLYQSLKDLLEYEGNVEDDMMITFQISQTDLFGNPMMYDLKENGDKIPITNENRKEFVNLYSDYILNKSVEKQFKAFRRGFHMVTNESPLKYLFRPEEIELLICGSRNLDFQALEETTEYDGGYTRDSVLIREFWEIVHSFTDEQKRLFLQFTTGTDRAPVGGLGKLKMIIAKNGPDTERLPTSHTCFNVLLLPEYSSKEKLKERLLKAITYAKGFGML
B7: GST-E6APR626A (protein)
chain: MATACKRSGEPQSDDIEASRMKRAAAKHLIERYYHQLTEGCGNEACTNEFCASCPTFLRMDNNAAAIKALELYKINAKLCDPHPSKKGASSAYLENSKGAPNNSCSEIKMNKKGARIDFKDVTYLTEEKVYEILELCREREDYSPLIRVIGRVFSSAEALVQSFRKVKQHTKEELKSLQAKDEDKDEDEKEKAACSAAAMEEDSEASSSRIGDSSQGDNNLQKLGPDDVSVDIDAIRRVYTRLLSNEKIETAFLNALVYLSPNVECDLTYHNVYSRDPNYLNLFIIVMENRNLHSPEYLEMALPLFCKAMSKLPLAAQGKLIRLWSKYNADQIRRMMETFQQLITYKVISNEFNSRNLVNDDDAIVAASKCLKMVYYANVVGGEVDTNHNEEDDEEPIPESSELTLQELLGEERRNKKGPRVDPLETELGVKTLDCRKPLIPFEEFINEPLNEVLEMDKDYTFFKVETENKFSFMTCPFILNAVTKNLGLYYDNRIRMYSERRITVLYSLVQGQQLNPYLRLKVRRDHIIDDALVRLEMIAMENPADLKKQLYVEFEGEQGVDEGGVSKEFFQLVVEEIFNPDIGMFTYDESTKLFWFNPSSFETEGQFTLIGIVLGLAIYNNCILDVHFPMVVYRKLMGKKGTFADLGDSHPVLYQSLKDLLEYEGNVEDDMMITFQISQTDLFGNPMMYDLKENGDKIPITNENRKEFVNLYSDYILNKSVEKQFKAFRRGFHMVTNESPLKYLFRPEEIELLICGSRNLDFQALEETTEYDGGYTRDSVLIREFWEIVHSFTDEQKRLFLQFTTGTDRAPVGGLGKLKMIIAKNGPDTERLPTSHTCFNVLLLPEYSSKEKLKERLLKAITYAKGFGML

Columns and labels:
[1] = molecular target: UbcH7˜125I-ubiquitin thioester, P68036
UbcH7˜125I-ubiquitin thioester, P68036, sequence (P68036 whole entry, looked up): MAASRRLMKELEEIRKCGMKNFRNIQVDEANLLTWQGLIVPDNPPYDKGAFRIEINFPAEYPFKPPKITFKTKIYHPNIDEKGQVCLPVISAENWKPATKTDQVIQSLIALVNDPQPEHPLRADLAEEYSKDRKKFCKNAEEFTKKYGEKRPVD

| Protein | Km- [1] | fold decrease in kcat of polyubiquitin chain formation (Q05086) |
| --- | --- | --- |
| B1 | 0.091 µM |  |
| B2 | 0.089 µM |  |
| B3 | 0.039 µM |  |
| B4 | 0.072 µM | 62-fold decrease in kcat |
| B5 | 0.54 µM |  |
| B6 | 0.04 µM | decreased kcat 10-fold |
| B7 | 0.15 µM | decreased kcat 155-fold |
